US20170219602A1

B1: recombinant single chain Equ c s ab (protein)
chain: MDICPAVKEDVNIFLTGTPDDYVKKVSQYQRNPVILANAEKLKNCIDKKLTAEDKENALSVLEKIYSSDFCGGGGSGGGGSGGGGSCPSFYAVLGVLSLGSKTLLDTSLNLVNATEPEKVAMGKIQDCYNEAGVITKISDLIIMGTITTSPECISHALSTLTTDVQEGISKLNPLGRLEHHHHHH
B2: recombinant Equ c 15k (protein, from a related filing, horse)
chain 1: ATCPAVATDIASFFLLPDSLFKLQLIKYQAPPEAKDATMQVKQCINEISAGDRYIITETLGKIVLQCGA
chain 2: GSGCQLLEDVVEKTITAELSPAEYVEAVQEFIPDEATEKAAIQLKQCYLKQSNETLNDFRTMMNSMYNSAYCALF

Legend:
[1] = target: IgE antibodies of serum A; assay: ImmunoCAP inhibition, inhibitor 100 µg/mL, horse dander extract solid phase
[2] = target: IgE antibodies of serum B; assay: as above
[3] = target: IgE antibodies of serum C; assay: as above
[4] = target: IgE antibodies of serum D; assay: as above
[5] = target: IgE antibodies of serum E; assay: as above
[6] = target: IgE antibodies of serum A; assay: ImmunoCAP inhibition, inhibitor 100 µg/mL, competitor rEqu c s on solid phase
[7] = target: IgE antibodies of serum B; assay: as above
[8] = target: IgE antibodies of serum C; assay: as above
[9] = target: IgE antibodies of serum D; assay: as above
[10] = target: IgE antibodies of serum E; assay: as above
[11] = target: IgE antibodies of serum A; assay: ImmunoCAP inhibition, inhibitor 100 µg/mL, competitor rFel d 1 on solid phase
[12] = target: IgE antibodies of serum B; assay: as above
[13] = target: IgE antibodies of serum C; assay: as above
[14] = target: IgE antibodies of serum D; assay: as above
[15] = target: IgE antibodies of serum E; assay: as above
[16] = target: IgE antibodies of serum A; assay: ImmunoCAP inhibition, inhibitor 100 µg/ml, cat dander extract solid phase
[17] = target: IgE antibodies of serum B; assay: as above
[18] = target: IgE antibodies of serum C; assay: as above
[19] = target: IgE antibodies of serum D; assay: as above
[20] = target: IgE antibodies of serum E; assay: as above
[21] = target: IgE antibodies of serum A; assay: ImmunoCAP inhibition, inhibitor 100 µg/ml, horse dander extract solid phase
[22] = target: IgE antibodies of serum B; assay: as above
[23] = target: IgE antibodies of serum C; assay: as above
[24] = target: IgE antibodies of serum D; assay: as above
[25] = target: IgE antibodies of serum E; assay: as above

Binder	Inhibition (%) [1] [%]	Inhibition (%) [2] [%]	Inhibition (%) [3] [%]	Inhibition (%) [4] [%]	Inhibition (%) [5] [%]	Inhibition (%) [6] [%]	Inhibition (%) [7] [%]	Inhibition (%) [8] [%]	Inhibition (%) [9] [%]	Inhibition (%) [10] [%]	Inhibition (%) [11] [%]	Inhibition (%) [12] [%]	Inhibition (%) [13] [%]	Inhibition (%) [14] [%]	Inhibition (%) [15] [%]	other results
B1	96	93	96	96	98	60	62	62	59	76	-7	-3	-2	5	7	–
B2	-10	-2	0	-6	-10	12	5	7	8	4	-5	-4	-6	-2	-3	Inhibition (%) [16]: -2%; Inhibition (%) [17]: 6%; Inhibition (%) [18]: -2%; Inhibition (%) [19]: 0%; Inhibition (%) [20]: 4%; Inhibition (%) [21]: -5%; Inhibition (%) [22]: -2%; Inhibition (%) [23]: 5%; Inhibition (%) [24]: 4%; Inhibition (%) [25]: 2%
